Laboratory results: the supplement of paper PMC10065799, “High-throughput profiling of sequence recognition by tyrosine kinases and SH2 domains using bacterial peptide display” (eLife, 2023)

How the values were obtained:
[1] = tested on: AncSZ; test: phosphorylation enrichment, bacterial display (enrichment ratio); higher = better substrate or ligand; peptides without Tyr show the background
[2] = target: EPHB1 (UniProt P54762); test: as above
[3] = target: EPHB2 (UniProt P29323); test: as above
[4] = target: FGFR1 (UniProt P11362); test: as above
[5] = target: FGFR3 (UniProt P22607); test: as above
[6] = tested on: Fer (mouse); test: as above
[7] = target: Fes (UniProt P07332); test: as above
[8] = target: Fyn (UniProt P06241); test: as above
[9] = target: Hck (UniProt P08631); test: as above
[10] = target: Jak2 (UniProt O60674); test: as above
[11] = target: MERTK (UniProt Q12866); test: as above
[12] = tested on: c-Abl (mouse); test: as above
[13] = tested on: c-Src; test: as above
[14] = target: Grb2 SH2 (UniProt P62993); test: SH2 binding enrichment of the phosphorylated peptide, bacterial display (enrichment ratio); higher = better substrate or ligand; peptides without Tyr show the background
[15] = target: SHP2-C SH2; test: as above
[16] = target: c-Src SH2; test: as above
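Wherever SH2 binding enrichment of the phosphorylated peptide, bacterial display is given: peptide library displayed on the E. coli surface as eCPX fusions, selected cells deep-sequenced, score is each peptide's frequency after selection divided by its frequency in the input.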
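Wherever phosphorylation enrichment, bacterial display is given: 11-residue human phosphosite peptides and single-mutation variants displayed on the E. coli surface, counted by deep sequencing, each peptide's frequency after selection divided by its frequency in the unselected input library; frequency after pTyr selection over input frequency; kinase dosed for 20-30% of maximal phosphorylation in three min.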

EPHB1, sequence (P54762 whole entry, looked up): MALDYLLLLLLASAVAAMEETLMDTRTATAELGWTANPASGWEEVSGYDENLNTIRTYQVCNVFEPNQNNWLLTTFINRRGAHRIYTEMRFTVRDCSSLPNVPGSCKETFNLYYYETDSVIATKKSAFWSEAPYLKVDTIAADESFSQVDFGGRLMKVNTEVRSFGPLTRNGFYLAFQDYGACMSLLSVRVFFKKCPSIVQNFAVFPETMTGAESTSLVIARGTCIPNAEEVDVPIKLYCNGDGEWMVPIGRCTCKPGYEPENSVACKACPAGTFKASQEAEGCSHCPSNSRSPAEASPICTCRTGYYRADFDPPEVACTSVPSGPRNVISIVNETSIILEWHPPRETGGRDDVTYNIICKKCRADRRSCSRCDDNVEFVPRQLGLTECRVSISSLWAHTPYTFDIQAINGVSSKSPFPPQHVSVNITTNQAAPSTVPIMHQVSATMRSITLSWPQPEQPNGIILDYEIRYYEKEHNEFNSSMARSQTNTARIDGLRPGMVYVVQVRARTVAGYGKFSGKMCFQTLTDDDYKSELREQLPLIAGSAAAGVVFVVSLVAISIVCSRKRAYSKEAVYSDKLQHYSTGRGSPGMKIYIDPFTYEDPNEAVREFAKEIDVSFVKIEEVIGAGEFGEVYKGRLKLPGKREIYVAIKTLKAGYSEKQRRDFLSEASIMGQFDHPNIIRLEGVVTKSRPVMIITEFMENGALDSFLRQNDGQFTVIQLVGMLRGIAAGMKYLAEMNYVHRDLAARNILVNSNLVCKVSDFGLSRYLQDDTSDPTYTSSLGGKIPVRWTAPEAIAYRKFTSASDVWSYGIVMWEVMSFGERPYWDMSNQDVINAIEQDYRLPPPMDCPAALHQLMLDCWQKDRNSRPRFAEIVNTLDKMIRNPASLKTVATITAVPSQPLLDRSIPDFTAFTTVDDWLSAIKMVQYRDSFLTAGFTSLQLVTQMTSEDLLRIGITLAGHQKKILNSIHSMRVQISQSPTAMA
Fyn, sequence (P06241 whole entry, looked up): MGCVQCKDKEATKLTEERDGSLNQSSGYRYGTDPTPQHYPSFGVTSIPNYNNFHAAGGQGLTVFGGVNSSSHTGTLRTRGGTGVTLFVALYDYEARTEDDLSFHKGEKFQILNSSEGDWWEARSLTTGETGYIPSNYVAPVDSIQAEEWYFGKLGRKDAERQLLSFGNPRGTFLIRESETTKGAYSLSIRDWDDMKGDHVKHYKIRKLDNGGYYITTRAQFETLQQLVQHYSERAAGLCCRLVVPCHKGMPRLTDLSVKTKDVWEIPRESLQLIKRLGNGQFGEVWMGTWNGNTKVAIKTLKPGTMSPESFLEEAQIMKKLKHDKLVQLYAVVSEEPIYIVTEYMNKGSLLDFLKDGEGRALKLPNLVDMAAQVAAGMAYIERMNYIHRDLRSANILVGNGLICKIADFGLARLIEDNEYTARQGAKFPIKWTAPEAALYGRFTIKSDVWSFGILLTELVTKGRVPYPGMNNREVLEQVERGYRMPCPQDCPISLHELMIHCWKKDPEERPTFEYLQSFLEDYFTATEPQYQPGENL
Grb2 SH2, sequence (P62993 whole entry, looked up): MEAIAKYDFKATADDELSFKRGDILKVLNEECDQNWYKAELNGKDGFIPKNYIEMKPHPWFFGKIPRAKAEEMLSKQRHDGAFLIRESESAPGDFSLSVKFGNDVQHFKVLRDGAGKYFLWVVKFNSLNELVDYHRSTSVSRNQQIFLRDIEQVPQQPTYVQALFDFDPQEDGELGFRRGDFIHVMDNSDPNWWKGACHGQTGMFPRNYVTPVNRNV
FGFR1, sequence (P11362 whole entry, looked up): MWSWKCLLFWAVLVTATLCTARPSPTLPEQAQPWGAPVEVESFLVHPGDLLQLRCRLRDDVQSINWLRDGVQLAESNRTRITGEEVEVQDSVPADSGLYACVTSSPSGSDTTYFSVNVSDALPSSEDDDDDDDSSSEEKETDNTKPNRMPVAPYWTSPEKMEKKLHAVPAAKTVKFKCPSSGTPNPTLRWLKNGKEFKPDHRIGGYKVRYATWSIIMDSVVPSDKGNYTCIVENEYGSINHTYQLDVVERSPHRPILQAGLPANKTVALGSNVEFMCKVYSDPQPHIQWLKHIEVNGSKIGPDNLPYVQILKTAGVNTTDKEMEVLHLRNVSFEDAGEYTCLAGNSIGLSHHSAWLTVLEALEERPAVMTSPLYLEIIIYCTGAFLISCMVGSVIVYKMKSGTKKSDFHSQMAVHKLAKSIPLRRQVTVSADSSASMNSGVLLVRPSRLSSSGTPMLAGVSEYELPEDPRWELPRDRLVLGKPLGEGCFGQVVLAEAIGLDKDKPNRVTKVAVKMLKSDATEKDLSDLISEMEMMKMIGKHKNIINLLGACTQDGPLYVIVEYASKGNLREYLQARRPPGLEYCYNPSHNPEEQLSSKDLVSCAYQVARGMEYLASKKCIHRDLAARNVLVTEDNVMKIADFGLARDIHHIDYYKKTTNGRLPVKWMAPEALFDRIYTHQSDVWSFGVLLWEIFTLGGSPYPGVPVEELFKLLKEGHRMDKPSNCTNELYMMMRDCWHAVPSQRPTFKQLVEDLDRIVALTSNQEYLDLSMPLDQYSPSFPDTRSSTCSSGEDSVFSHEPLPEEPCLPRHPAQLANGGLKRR
EPHB2, sequence (P29323 whole entry, looked up): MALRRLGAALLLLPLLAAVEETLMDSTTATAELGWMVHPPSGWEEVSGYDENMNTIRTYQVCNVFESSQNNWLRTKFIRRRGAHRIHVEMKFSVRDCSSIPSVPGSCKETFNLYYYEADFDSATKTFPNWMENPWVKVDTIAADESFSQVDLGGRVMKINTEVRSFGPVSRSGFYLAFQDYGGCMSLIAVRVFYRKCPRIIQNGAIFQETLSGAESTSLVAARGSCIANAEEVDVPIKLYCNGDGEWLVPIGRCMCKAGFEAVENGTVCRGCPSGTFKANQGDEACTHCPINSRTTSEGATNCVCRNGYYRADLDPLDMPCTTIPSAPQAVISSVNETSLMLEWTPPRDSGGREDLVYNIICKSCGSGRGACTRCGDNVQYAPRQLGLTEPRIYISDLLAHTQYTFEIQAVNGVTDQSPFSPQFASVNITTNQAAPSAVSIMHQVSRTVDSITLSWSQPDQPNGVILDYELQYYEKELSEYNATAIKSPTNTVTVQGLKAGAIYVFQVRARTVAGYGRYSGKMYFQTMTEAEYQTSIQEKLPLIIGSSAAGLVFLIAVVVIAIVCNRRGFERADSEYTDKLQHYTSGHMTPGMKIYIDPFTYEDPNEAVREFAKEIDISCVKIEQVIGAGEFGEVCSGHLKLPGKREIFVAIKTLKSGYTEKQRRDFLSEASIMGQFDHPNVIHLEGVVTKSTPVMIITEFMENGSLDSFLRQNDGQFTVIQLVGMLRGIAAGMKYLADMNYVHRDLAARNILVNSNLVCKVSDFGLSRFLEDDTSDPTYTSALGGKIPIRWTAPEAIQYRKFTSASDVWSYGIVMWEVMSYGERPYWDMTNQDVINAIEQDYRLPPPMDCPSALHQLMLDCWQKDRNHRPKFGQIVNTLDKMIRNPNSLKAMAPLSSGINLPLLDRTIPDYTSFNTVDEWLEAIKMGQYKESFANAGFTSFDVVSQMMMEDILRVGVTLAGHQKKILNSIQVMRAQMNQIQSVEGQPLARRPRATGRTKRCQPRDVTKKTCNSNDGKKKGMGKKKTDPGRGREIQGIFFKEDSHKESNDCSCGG
Hck, sequence (P08631 whole entry, looked up): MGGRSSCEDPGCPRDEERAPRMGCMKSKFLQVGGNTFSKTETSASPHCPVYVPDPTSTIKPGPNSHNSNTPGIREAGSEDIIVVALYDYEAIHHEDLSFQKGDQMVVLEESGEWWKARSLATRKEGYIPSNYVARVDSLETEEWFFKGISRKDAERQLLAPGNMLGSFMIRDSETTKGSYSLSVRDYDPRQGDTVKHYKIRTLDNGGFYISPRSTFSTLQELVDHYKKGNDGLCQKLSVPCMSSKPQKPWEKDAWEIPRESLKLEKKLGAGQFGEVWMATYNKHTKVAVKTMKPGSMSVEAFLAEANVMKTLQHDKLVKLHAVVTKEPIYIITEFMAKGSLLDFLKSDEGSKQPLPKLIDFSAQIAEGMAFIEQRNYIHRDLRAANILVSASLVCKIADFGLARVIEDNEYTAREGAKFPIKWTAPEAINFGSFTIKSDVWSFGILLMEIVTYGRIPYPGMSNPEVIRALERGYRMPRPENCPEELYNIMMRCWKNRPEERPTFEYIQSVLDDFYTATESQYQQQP
FGFR3, sequence (P22607 whole entry, looked up): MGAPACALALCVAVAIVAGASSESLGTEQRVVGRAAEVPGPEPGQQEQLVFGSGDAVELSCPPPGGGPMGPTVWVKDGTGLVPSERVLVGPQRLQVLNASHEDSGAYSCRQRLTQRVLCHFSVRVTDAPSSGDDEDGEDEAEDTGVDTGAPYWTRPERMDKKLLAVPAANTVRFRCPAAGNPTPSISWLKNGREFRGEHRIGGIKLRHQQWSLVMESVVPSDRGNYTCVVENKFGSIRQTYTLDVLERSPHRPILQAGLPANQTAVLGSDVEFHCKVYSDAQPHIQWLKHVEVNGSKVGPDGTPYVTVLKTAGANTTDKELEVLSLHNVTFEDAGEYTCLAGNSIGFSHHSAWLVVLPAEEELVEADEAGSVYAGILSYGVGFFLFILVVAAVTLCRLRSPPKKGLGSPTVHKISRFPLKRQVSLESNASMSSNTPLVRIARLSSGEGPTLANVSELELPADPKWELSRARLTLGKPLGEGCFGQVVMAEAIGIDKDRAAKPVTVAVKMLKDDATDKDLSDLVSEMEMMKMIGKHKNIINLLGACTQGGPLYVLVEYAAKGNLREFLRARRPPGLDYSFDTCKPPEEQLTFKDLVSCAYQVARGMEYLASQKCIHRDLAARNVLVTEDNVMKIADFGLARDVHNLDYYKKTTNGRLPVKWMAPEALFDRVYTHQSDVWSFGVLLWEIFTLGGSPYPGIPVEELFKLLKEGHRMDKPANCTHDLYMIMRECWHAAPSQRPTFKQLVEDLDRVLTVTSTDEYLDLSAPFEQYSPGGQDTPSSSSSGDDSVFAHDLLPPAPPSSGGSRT

Work on LQRVQYDLQKA [DSP_Y1512] yielded a phosphorylation enrichment [1] of 0.872, a phosphorylation enrichment [2] of 1.3 and a phosphorylation enrichment [3] of 0.907. For the same sequence, the phosphorylation enrichment [4] was 0.897, the phosphorylation enrichment [5] was 0.816 and the phosphorylation enrichment [6] was 0.58. It also gave a phosphorylation enrichment [7] of 0.788, a phosphorylation enrichment [8] of 0.582 and a phosphorylation enrichment [9] of 0.397. For the same sequence, the phosphorylation enrichment [10] was 0.642, the phosphorylation enrichment [11] was 0.646 and the phosphorylation enrichment [12] was 0.496. The phosphorylation enrichment [13] was 0.409, the SH2 binding enrichment [14] was 0.948 and the SH2 binding enrichment [15] was 0.831. For the same sequence, the SH2 binding enrichment [16] was 0.565.

For LRFDSYWSFCN [SLC20A2_Y433_S434W_YF], the phosphorylation enrichment [1] was 1.25, the phosphorylation enrichment [2] was 1.04 and the phosphorylation enrichment [3] was 0.774. It also gave a phosphorylation enrichment [4] of 1.64, a phosphorylation enrichment [5] of 1.4 and a phosphorylation enrichment [6] of 0.506. The phosphorylation enrichment [7] was 1.33, the phosphorylation enrichment [8] was 2.12 and the phosphorylation enrichment [9] was 2.1. For the same sequence, the phosphorylation enrichment [10] was 1.49, the phosphorylation enrichment [11] was 0.572 and the phosphorylation enrichment [12] was 0.781. It also gave a phosphorylation enrichment [13] of 2.72, an SH2 binding enrichment [14] of 1.01 and an SH2 binding enrichment [15] of 0.945. For the same sequence, the SH2 binding enrichment [16] was 0.726.

Work on LRKQDYQEILD [SLC35G2_Y403] yielded a phosphorylation enrichment [1] of 0.995, a phosphorylation enrichment [2] of 0.632 and a phosphorylation enrichment [3] of 0.379. It also gave a phosphorylation enrichment [4] of 0.629, a phosphorylation enrichment [5] of 0.708 and a phosphorylation enrichment [6] of 0.434. For the same sequence, the phosphorylation enrichment [7] was 1.17, the phosphorylation enrichment [8] was 0.529 and the phosphorylation enrichment [9] was 0.47. For the same sequence, the phosphorylation enrichment [10] was 0.999, the phosphorylation enrichment [11] was 0.364 and the phosphorylation enrichment [12] was 0.629. It also gave a phosphorylation enrichment [13] of 0.468, an SH2 binding enrichment [14] of 0.82 and an SH2 binding enrichment [15] of 0.606. For the same sequence, the SH2 binding enrichment [16] was 6.76.

LRRQDYQEILD [SLC35G2_Y403_K400R] was tested, and the phosphorylation enrichment [1] was 1.35, the phosphorylation enrichment [2] was 0.838 and the phosphorylation enrichment [3] was 0.898. The phosphorylation enrichment [4] was 0.727, the phosphorylation enrichment [5] was 0.783 and the phosphorylation enrichment [6] was 0.509. The phosphorylation enrichment [7] was 1.58, the phosphorylation enrichment [8] was 0.492 and the phosphorylation enrichment [9] was 0.352. For the same sequence, the phosphorylation enrichment [10] was 1.06, the phosphorylation enrichment [11] was 0.622 and the phosphorylation enrichment [12] was 0.621. It also gave a phosphorylation enrichment [13] of 0.376, an SH2 binding enrichment [14] of 0.78 and an SH2 binding enrichment [15] of 0.767. For the same sequence, the SH2 binding enrichment [16] was 3.37.

LSSEMYVKSFT [F5_Y2149_YF] showed a phosphorylation enrichment [1] of 1.35, a phosphorylation enrichment [2] of 0.609 and a phosphorylation enrichment [3] of 0.788. The phosphorylation enrichment [4] was 1.15, the phosphorylation enrichment [5] was 0.975 and the phosphorylation enrichment [6] was 0.837. It also gave a phosphorylation enrichment [7] of 1.27, a phosphorylation enrichment [8] of 0.647 and a phosphorylation enrichment [9] of 0.933. For the same sequence, the phosphorylation enrichment [10] was 0.965, the phosphorylation enrichment [11] was 0.641 and the phosphorylation enrichment [12] was 0.684. The phosphorylation enrichment [13] was 0.307, the SH2 binding enrichment [14] was 0.676 and the SH2 binding enrichment [15] was 0.708. The SH2 binding enrichment [16] was 0.364.

LSVEIYDRREY [ITGB7_Y753] showed a phosphorylation enrichment [1] of 1.52, a phosphorylation enrichment [2] of 0.669 and a phosphorylation enrichment [3] of 0.816. The phosphorylation enrichment [4] was 0.618, the phosphorylation enrichment [5] was 0.869 and the phosphorylation enrichment [6] was 0.587. The phosphorylation enrichment [7] was 1.4, the phosphorylation enrichment [8] was 0.675 and the phosphorylation enrichment [9] was 2.23. For the same sequence, the phosphorylation enrichment [10] was 0.965, the phosphorylation enrichment [11] was 0.581 and the phosphorylation enrichment [12] was 0.801. For the same sequence, the phosphorylation enrichment [13] was 0.765, the SH2 binding enrichment [14] was 0.602 and the SH2 binding enrichment [15] was 0.437. It also gave an SH2 binding enrichment [16] of 0.523.

With LTQRTYMSENN [GPAA1_Y49_A54N] the phosphorylation enrichment [1] was 1.11, the phosphorylation enrichment [2] was 0.783 and the phosphorylation enrichment [3] was 0.879. The phosphorylation enrichment [4] was 1.13, the phosphorylation enrichment [5] was 1.09 and the phosphorylation enrichment [6] was 0.867. For the same sequence, the phosphorylation enrichment [7] was 1.46, the phosphorylation enrichment [8] was 0.479 and the phosphorylation enrichment [9] was 0.703. For the same sequence, the phosphorylation enrichment [10] was 0.67, the phosphorylation enrichment [11] was 0.87 and the phosphorylation enrichment [12] was 1.01. The phosphorylation enrichment [13] was 0.549, the SH2 binding enrichment [14] was 0.709 and the SH2 binding enrichment [15] was 0.676. It also gave an SH2 binding enrichment [16] of 0.442.

In the case of LVFIKYLPEWT [PSEN1_Y240], the phosphorylation enrichment [1] is reported as 1.78, the phosphorylation enrichment [2] is reported as 0.898 and the phosphorylation enrichment [3] is reported as 0.734. For the same sequence, the phosphorylation enrichment [4] was 0.615, the phosphorylation enrichment [5] was 1.27 and the phosphorylation enrichment [6] was 0.744. For the same sequence, the phosphorylation enrichment [7] was 1.92, the phosphorylation enrichment [8] was 0.361 and the phosphorylation enrichment [9] was 0.555. It also gave a phosphorylation enrichment [10] of 1.97, a phosphorylation enrichment [11] of 0.769 and a phosphorylation enrichment [12] of 1.11. The phosphorylation enrichment [13] was 0.4, the SH2 binding enrichment [14] was 1.6 and the SH2 binding enrichment [15] was 1.43. For the same sequence, the SH2 binding enrichment [16] was 0.902.

Sequence LVQAEYWRDPI [PPT1_Y185_H187R] has a phosphorylation enrichment [1] of 1.55, a phosphorylation enrichment [2] of 0.891 and a phosphorylation enrichment [3] of 0.931. It also gave a phosphorylation enrichment [4] of 1.71, a phosphorylation enrichment [5] of 1.22 and a phosphorylation enrichment [6] of 0.693. It also gave a phosphorylation enrichment [7] of 1.72, a phosphorylation enrichment [8] of 0.961 and a phosphorylation enrichment [9] of 0.423. It also gave a phosphorylation enrichment [10] of 1.46, a phosphorylation enrichment [11] of 0.614 and a phosphorylation enrichment [12] of 0.816. It also gave a phosphorylation enrichment [13] of 0.691, an SH2 binding enrichment [14] of 0.818 and an SH2 binding enrichment [15] of 1.14. It also gave an SH2 binding enrichment [16] of 0.914.

Sequence MAHDRYAAICS [OR8H2_Y123] has a phosphorylation enrichment [1] of 0.547, a phosphorylation enrichment [2] of 0.41 and a phosphorylation enrichment [3] of 0.444. It also gave a phosphorylation enrichment [4] of 0.494, a phosphorylation enrichment [5] of 0.439 and a phosphorylation enrichment [6] of 0.372. It also gave a phosphorylation enrichment [7] of 0.646, a phosphorylation enrichment [8] of 0.437 and a phosphorylation enrichment [9] of 0.48. For the same sequence, the phosphorylation enrichment [10] was 0.44, the phosphorylation enrichment [11] was 0.424 and the phosphorylation enrichment [12] was 0.396. The phosphorylation enrichment [13] was 0.424, the SH2 binding enrichment [14] was 0.9 and the SH2 binding enrichment [15] was 1.91. It also gave an SH2 binding enrichment [16] of 5.4.

Sequence MALDRYVASCK [OR2B11_Y127_I130S] has a phosphorylation enrichment [1] of 0.649, a phosphorylation enrichment [2] of 0.465 and a phosphorylation enrichment [3] of 0.593. For the same sequence, the phosphorylation enrichment [4] was 0.397, the phosphorylation enrichment [5] was 0.569 and the phosphorylation enrichment [6] was 0.475. It also gave a phosphorylation enrichment [7] of 0.846, a phosphorylation enrichment [8] of 0.421 and a phosphorylation enrichment [9] of 0.435. The phosphorylation enrichment [10] was 0.667, the phosphorylation enrichment [11] was 0.385 and the phosphorylation enrichment [12] was 0.592. It also gave a phosphorylation enrichment [13] of 0.436, an SH2 binding enrichment [14] of 0.799 and an SH2 binding enrichment [15] of 0.698. For the same sequence, the SH2 binding enrichment [16] was 0.579.

Work on MCVKSYTIHYS [F5_Y2153_Y2149C] yielded a phosphorylation enrichment [1] of 1.12, a phosphorylation enrichment [2] of 0.682 and a phosphorylation enrichment [3] of 0.569. The phosphorylation enrichment [4] was 0.513, the phosphorylation enrichment [5] was 0.878 and the phosphorylation enrichment [6] was 0.636. It also gave a phosphorylation enrichment [7] of 1.26, a phosphorylation enrichment [8] of 0.517 and a phosphorylation enrichment [9] of 0.552. For the same sequence, the phosphorylation enrichment [10] was 0.942, the phosphorylation enrichment [11] was 0.459 and the phosphorylation enrichment [12] was 0.726. For the same sequence, the phosphorylation enrichment [13] was 0.45, the SH2 binding enrichment [14] was 0.811 and the SH2 binding enrichment [15] was 0.592. It also gave an SH2 binding enrichment [16] of 0.472.

Work on MDNQEYKDAFK [BRDT_Y331_YF] yielded a phosphorylation enrichment [1] of 1.15, a phosphorylation enrichment [2] of 0.715 and a phosphorylation enrichment [3] of 0.602. For the same sequence, the phosphorylation enrichment [4] was 0.504, the phosphorylation enrichment [5] was 0.67 and the phosphorylation enrichment [6] was 0.505. The phosphorylation enrichment [7] was 1.39, the phosphorylation enrichment [8] was 0.493 and the phosphorylation enrichment [9] was 0.584. For the same sequence, the phosphorylation enrichment [10] was 1.22, the phosphorylation enrichment [11] was 0.442 and the phosphorylation enrichment [12] was 1.22. For the same sequence, the phosphorylation enrichment [13] was 0.526, the SH2 binding enrichment [14] was 1.07 and the SH2 binding enrichment [15] was 0.721. For the same sequence, the SH2 binding enrichment [16] was 0.532.

In the case of MFFSKYDRDND [FGB_Y408_T407K], the phosphorylation enrichment [1] is reported as 0.817, the phosphorylation enrichment [2] is reported as 0.493 and the phosphorylation enrichment [3] is reported as 0.488. The phosphorylation enrichment [4] was 0.47, the phosphorylation enrichment [5] was 0.66 and the phosphorylation enrichment [6] was 0.51. For the same sequence, the phosphorylation enrichment [7] was 1.01, the phosphorylation enrichment [8] was 0.501 and the phosphorylation enrichment [9] was 0.589. It also gave a phosphorylation enrichment [10] of 0.845, a phosphorylation enrichment [11] of 0.486 and a phosphorylation enrichment [12] of 0.717. It also gave a phosphorylation enrichment [13] of 0.426, an SH2 binding enrichment [14] of 1.07 and an SH2 binding enrichment [15] of 0.801. For the same sequence, the SH2 binding enrichment [16] was 0.447.
